In the supplement of paper PMC12667976:

B1: library; numbered along this chain (parent)
chain: MATDAALRRLLRLHRTEIAVAVDSAFPLLHALADHDVVPEDKFQETLHLKEKEGCPQAFHALLSWLLTQDSTAILDFWRVLFKDYNLERYGRLQPILDSFPKDVDLSQPRKGRKPPAVPKALVPPPRLPTKRKASEEARAAAPAALTPRGTASPGSQLKAKPPKKPESSAEQQRLPLGNGIQTMSASVQRAVAMSSGDVPGARGAVEGILIQQVFESGGSKKCIQVGGEFYTPSKFEDSGSGKNKARSSSGPKPLVRAKGAQGAAPGGGEARLGQQGSVPAPLALPSDPQLHQKNEDECAVCRDGGELICCDGCPRAFHLACLSPPLREIPSGTWRCSSCLQATVQEVQPRAEEPRPQEPPVETPLPPGLRSAGEEVRGPPGEPLAGMDTTLVYKHLPAPPSAAPLPGLDSSALHPLLCVGPEGQQNLAPGARCGVCGDGTDVLRCTHCAAAFHWRCHFPAGTSRPGTGLRCRSCSGDVTPAPVEGVLAPSPARLAPGPAKDDTASHEPALHRDDLESLLSEHTFDGILQWAIQSMARPAAPFPS

Variants of: B1
Experiment: AIRE transcriptional activation functional score (insulin promoter-GFP; nonsense median 0, synonymous median 1) (normalised score); higher = higher AIRE activity (more reporter activation)
Conditions: with insulin promoter-GFP reporter in HEK293
Experimental: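 Deep mutational scan of full-length human AIRE (codon-optimized cDNA, DT-POPCode NNN libraries over three regions) integrated at a Bxb1 landing pad in HEK293 cells carrying an insulin core promoter-GFP reporter at a Flp-In site. Cells were sorted for the top 10% GFP about 14 days after transfection. Variant frequency log-ratios (select vs non-select, TileSeq) were rescaled so that the nonsense median is 0 and the synonymous median is 1, then averaged over biological replicates.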

AIRE transcriptional activation functional score, by site and new letter:
A284: N 0.828; L 1.02; C 0.943; P 0.905; M 0.962; R 1.12; I 1.23; T 0.876; F 1.2; S 1.1; Y 1.32; H 0.932; Q 1.39; W 1.16; G 1.03; K 0.964; D 1.06; E 0.63; V 1.06
P289: F 0.919; H 1.22; G 1.14; D -0.468; R 1.19; N 0.167; C 1.08; Q 0.942; K 1.39; L 0.891; T 1.37; E 0.531; W 1.43; A 0.95; S 1.3; M 1.35; V 1.09
N295: C 1.01; Y 1.08; T 1.14; K 1.03; H 0.879; D 0.921; L 1.17; V 1.09; W 0.869; Q 0.995; G 0.969; R 0.795; S 0.92; M -0.37; I 0.856; F 0.892; E 1.27; A 0.906; P 1.05
P286: W 1.61; R 1.17; N 0.454; L 1.14; V 1.26; T 1.07; M 1.36; A 0.97; C 0.46; Y 1.65; G 1.05; D 0.448; Q 1.07; I 0.986; S 0.834; H 0.652; F 1.54; K 0.495; E 1
P282: W 1.1; S 0.614; I 1.43; E 0.555; T 1.27; C 2.16; A 0.929; H 0.91; G 1.03; R 0.839; Q 0.976; N -0.335; L 1.31; M 1.1; Y 1.17; K 1.2; F 0.638; V 1.38; D 1.05
K294: M 0.969; I 0.609; C 1; S 0.706; Q 1.43; Y 0.634; W -0.487; G 0.728; L 0.857; V 0.546; E 0.357; F 0.447; N 0.937; H 0.554; A 0.459; T 0.822; R 1.17; P 1.21
P280: E 1.13; I 0.993; C 0.574; W -0.397; S 1.1; V 1.2; R 1.01; K 0.978; G 1.17; H 1.04; N 1.37; L 1.28; A 0.981; Q 1.14; M 1.23; Y 1.42; T 1.04; D 0.642; F 1.58
E296: F 1.09; G 1.03; H 1.76; C 0.394; A 0.699; D 0.711
A281: D 0.674; N 0.445; I 0.957; V 0.872; P 0.84; S 0.99; R 1.15; M 0.425; H 1.11; C 0.996; L 1.31; Y 1.32; Q 1.02; W 1.53; F 1.63; E -0.175; T 0.867; G 1.5; K 1.67
L291: P 1.26; H 0.333; G 1.06; E 0.759; N 0.0689; W 0.706; F 1.15; C 1.01; I 0.864; Y 1.69; R 0.656; K 0.675; D 0.351; S 1.1; M 1.29; T 0.708; Q 0.902; A 0.566; V 1.03
L285: V 0.989; I 1.02; Y 0.979; C 0.894; R 1.02; H 0.689; D 1.56; A 1.37; S 0.921; T 0.845; N 0.918; K 0.713; G 0.429; F 0.835; P 1.17; Q 1.22
H292: K 0.992; F 0.915; S 0.599; V 0.936; D 0.892; N 1.03; Q 0.508; E -0.172; L 0.55; G 1.12; A 0.816; Y 0.957; I 0.603; P 0.865; W 1.03; T 1.13; M 1.7; C 0.815; R 0.856
S278: W 1.19; T 1.23; R 0.819; V 1.09; N 0.723; L 1.01; P 1.12; M 1.35; Q 1.16; I 1.04; K 1.28; Y 1.29
Q290: C 0.819; K 0.932; I 0.465; A 0.939; H 0.981; M 1.27; L 0.646; R 1.2; Y 1.48; P 0.267; T 0.55; N 1.19; W 1.1; V 1.04; E 0.67; F 1.21; S 0.97; G 1.02
D288: R 1.08; T 0.903; P 1.15; S 1.24; N 0.786; G 1.14; A 1.19; V 1.14; I 1.38; F 1.5; E 0.565; L 1.19; H 0.855; C 1.26; W 1.59; K 0.535; Y 1.23; Q 0.949; M 1.31
S287: L 1.38; T 1.44; D 0.579; W 1.12; G 1.22; Y 1.17; R 1.04; A 1.17; V 0.972; P 0.464; N 1.13; E 0.811; H 0.964; K 0.385; Q 1.24; M 1.29; C 1.07; F 0.994; I 1.07
Q293: E 1.33; M 0.829; D 0.479; I 0.523; T -0.386; C 0.906; Y 0.958; R 0.982; W 1.35; K 1.16; F 1.1; P 0.602; N 0.746; A 0.738; S 0.559; L 1.08; G 1; V 0.932; H 1.18
V279: L 1; I 0.721; E 1.08; S 1.24; T 0.815; A 1.45; R 1.04; F 1.69; H 1.06; W 1.4; Y 1.26; D -0.0439; P 1.06; K 0.637; Q -0.249; N 0.603; G 1.08; M 1.34; C 1.36
L283: F 1.17; D 1.01; A 1.02; P 0.953; V 1.12; S 1.01; Q 0.784; Y 1.19; R 1; H 1.15; W 1.14; N 0.486; K 1.19; M 1.34; C 0.771; E 0.987; T 1.02; G 0.798; I 0.854
